Test results from patent US20250243277A1 (AVACTA LIFE SCIENCES, published 2025).
Changes are numbered by the printed parent chain.

B1: Clone 123 (designed binder)
chain: MIPGGLSEAKPATPEIQEIVDKVKPQLEEKTGETYGKLEAVQYKTQVDNLVYYQRDWGTNYYIKVRAGDNKYMHLKVFKSLEPGRWRWPKEDLVLTGYQVDKNKDDELTGF
notes: His-tagged
B2: Clone 121 (designed binder)
chain: MIPGGLSEAKPATPEIQEIVDKVKPQLEEKTGETYGKLEAVQYKTQVDGNFAHERWQGTNYYIKVRAGDNKYMHLKVFKSLYIARDFDWTEDLVLTGYQVDKNKDDELTGF
notes: His-tagged
B3: Clone 110 (designed binder)
chain: MIPGGLSEAKPATPEIQEIVDKVKPQLEEKTGETYGKLEAVQYKTQVDHTQPKALDWGTNYYIKVRAGDNKYMHLKVFKSLWGSILTDGPEDLVLTGYQVDKNKDDELTGF
notes: His-tagged
B4: Clone 119 (designed binder)
chain: MIPGGLSEAKPATPEIQEIVDKVKPQLEEKTGETYGKLEAVQYKTQVDSWVFKPFYHGTNYYIKVRAGDNKYMHLKVFKSLSGPEFFSRHEDLVLTGYQVDKNKDDELTGF
notes: His-tagged
B5: Clone 125 (designed binder)
chain: MIPGGLSEAKPATPEIQEIVDKVKPQLEEKTGETYGKLEAVQYKTQVVTRLHFPQYQGTNYYIKVRAGDNKYMHLKVFKSLEIEVNPYANEDLVLTGYQVDKNKDDELTGF
notes: His-tagged
B6: Clone 132 (designed binder)
chain: MIPGGLSEAKPATPEIQEIVDKVKPQLEEKTGETYGKLEAVQYKTQVVERYHFPQFTGTNYYIKVRAGDNKYMHLKVFKSLNHDQVRWNLEDLVLTGYQVDKNKDDELTGF
notes: His-tagged
B7: Clone 114 (designed binder)
chain: MIPGGLSEAKPATPEIQEIVDKVKPQLEEKTGETYGKLEAVQYKTQVDQSSDLAKLWGTNYYIKVRAGDNKYMHLKVFKSLWNLNSDKSSEDLVLTGYQVDKNKDDELTGF
notes: His-tagged
B8: Clone 196 (designed binder)
chain: MIPGGLSEAKPATPEIQEIVDKVKPQLEEKTGETYGKLEAVQYKTQVVLLWTPPYVDGTNYYIKVRAGDNKYMHLKVFKSLGWNDDHSVGEDLVLTGYQVDKNKDDELTGF
notes: His-tagged
B9: Clone 219 (designed binder)
chain: MIPGGLSEAKPATPEIQEIVDKVKPQLEEKTGETYGKLEAVQYKTQVVPLTIPPFVEGTNYYIKVRAGDNKYMHLKVFKSLGWQQVNDVKEDLVLTGYQVDKNKDDELTGF
notes: His-tagged
B10: Clone 240 (designed binder)
chain: MIPGGLSEAKPATPEIQEIVDKVKPQLEEKTGETYGKLEAVQYKTQVVLLYQAPFVQGTNYYIKVRAGDNKYMHLKVFKSLGWDLEYSQKEDLVLTGYQVDKNKDDELTGF
notes: His-tagged
B11: Clone 19 (designed binder)
chain: B8 chain with L49Y, L50R, W51F, T52G, D57K, D85A, D86F, H87S, V89P, G90A
notes: His-tagged
B12: Clone 16 (designed binder)
chain: MIPGGLSEAKPATPEIQEIVDKVKPQLEEKTGETYGKLEAVQYKTQVVHIQWPPWVEGTNYYIKVRAGDNKYMHLKVFKSLGWTSDNSNFEDLVLTGYQVDKNKDDELTGF
notes: His-tagged
B13: Clone 161 (designed binder)
chain: MIPGGLSEAKPATPEIQEIVDKVKPQLEEKTGETYGKLEAVQYKTQVVVLERPPYVKGTNYYIKVRAGDNKYMHLKVFKSLNWEGEPSGVEDLVLTGYQVDKNKDDELTGF
notes: His-tagged
B14: Clone 12 (designed binder)
chain: B8 chain with L49Q, W51K, T52F, D57S, N84D, D86K, H87P, S88E, V89W, G90D
notes: His-tagged
B15: Clone 154 (designed binder)
chain: MIPGGLSEAKPATPEIQEIVDKVKPQLEEKTGETYGKLEAVQYKTQVVPQIGAPYVKGTNYYIKVRAGDNKYMHLKVFKSLGWNSNIGVLEDLVLTGYQVDKNKDDELTGF
notes: His-tagged
B16: Clone 118 (designed binder)
chain: MIPGGLSEAKPATPEIQEIVDKVKPQLEEKTGETYGKLEAVQYKTQVDVISIPLVWNGTNYYIKVRAGDNKYMHLKVFKSLIFQEYYPHREDLVLTGYQVDKNKDDELTGF
notes: His-tagged
B17: Clone 122 (designed binder)
chain: B16 chain with S51H, L54H, V55Q, N57H, Q84H, Y86P, Y87K, H89P
notes: His-tagged
B18: Clone 131 (designed binder)
chain: MIPGGLSEAKPATPEIQEIVDKVKPQLEEKTGETYGKLEAVQYKTQVVNQWEWPVDLGTNYYIKVRAGDNKYMHLKVFKSLKVYRTHHIFEDLVLTGYQVDKNKDDELTGF
notes: His-tagged
B19: Clone 13 (designed binder)
chain: MIPGGLSEAKPATPEIQEIVDKVKPQLEEKTGETYGKLEAVQYKTQVVLFREEKYNYGTNYYIKVRAGDNKYMHLKVFKSLAWGEVVSNAEDLVLTGYQVDKNKDDELTGF
notes: His-tagged
B20: Clone 134 (designed binder)
chain: MIPGGLSEAKPATPEIQEIVDKVKPQLEEKTGETYGKLEAVQYKTQVVFWFEDIQWLGTNYYIKVRAGDNKYMHLKVFKSLRFREDVDIREDLVLTGYQVDKNKDDELTGF
notes: His-tagged
B21: Clone 29 (designed binder)
chain: MIPGGLSEAKPATPEIQEIVDKVKPQLEEKTGETYGKLEAVQYKTQVVFTFVDIHWYGTNYYIKVRAGDNKYMHLKVFKSLRKPKDRQYTEDLVLTGYQVDKNKDDELTGF
notes: His-tagged
B22: Clone 162 (designed binder)
chain: MIPGGLSEAKPATPEIQEIVDKVKPQLEEKTGETYGKLEAVQYKTQVVFTFSSIGWWGTNYYIKVRAGDNKYMHLKVFKSLRQLLDKPRYEDLVLTGYQVDKNKDDELTGF
notes: His-tagged
B23: Clone 112 (designed binder)
chain: MIPGGLSEAKPATPEIQEIVDKVKPQLEEKTGETYGKLEAVQYKTQVDRFYHQWHFLGTNYYIKVRAGDNKYMHLKVFKSLDLRAPRNDNEDLVLTGYQVDKNKDDELTGF
notes: His-tagged
B24: Clone 115 (designed binder)
chain: B23 chain
notes: His-tagged
B25: Clone 127 (designed binder)
chain: MIPGGLSEAKPATPEIQEIVDKVKPQLEEKTGETYGKLEAVQYKTQVVTQAIPWREWGTNYYIKVRAGDNKYMHLKVFKSLIPEWPKDASEDLVLTGYQVDKNKDDELTGF
notes: His-tagged
B26: Clone 128 (designed binder)
chain: MIPGGLSEAKPATPEIQEIVDKVKPQLEEKTGETYGKLEAVQYKTQVVPEVDKAEWWGTNYYIKVRAGDNKYMHLKVFKSLIRYGLRHEREDLVLTGYQVDKNKDDELTGF
notes: His-tagged
B27: Clone 120 (designed binder)
chain: MIPGGLSEAKPATPEIQEIVDKVKPQLEEKTGETYGKLEAVQYKTQVDPEVSITRWQGTNYYIKVRAGDNKYMHLKVFKSLYETHGNIITEDLVLTGYQVDKNKDDELTGF
notes: His-tagged
B28: Clone 126 (designed binder)
chain: MIPGGLSEAKPATPEIQEIVDKVKPQLEEKTGETYGKLEAVQYKTQVVYEPHHPYPWGTNYYIKVRAGDNKYMHLKVFKSLQYHPPYERFEDLVLTGYQVDKNKDDELTGF
notes: His-tagged
B29: Clone 133 (designed binder)
chain: MIPGGLSEAKPATPEIQEIVDKVKPQLEEKTGETYGKLEAVQYKTQVVLYSESRDYKGTNYYIKVRAGDNKYMHLKVFKSLHAYKGSIYREDLVLTGYQVDKNKDDELTGF
notes: His-tagged
B30: Clone 117 (designed binder)
chain: MIPGGLSEAKPATPEIQEIVDKVKPQLEEKTGETYGKLEAVQYKTQVDHEVRKTYEFGTNYYIKVRAGDNKYMHLKVFKSLWFGGWPLAQEDLVLTGYQVDKNKDDELTGF
notes: His-tagged
B31: Clone 113 (designed binder)
chain: MIPGGLSEAKPATPEIQEIVDKVKPQLEEKTGETYGKLEAVQYKTQVDWVTRHHTLVGTNYYIKVRAGDNKYMHLKVFKSLPPFKHWHLEDLVLTGYQVDKNKDDELTGF
notes: His-tagged
B32: Clone 116 (designed binder)
chain: B31 chain
notes: His-tagged
B33: Clone 124 (designed binder)
chain: MIPGGLSEAKPATPEIQEIVDKVKPQLEEKTGETYGKLEAVQYKTQVDQVLWEIFEHGTNYYIKVRAGDNKYMHLKVFKSLFHQWSPALHEDLVLTGYQVDKNKDDELTGF
notes: His-tagged
B34: Clone 130 (designed binder)
chain: MIPGGLSEAKPATPEIQEIVDKVKPQLEEKTGETYGKLEAVQYKTQVVPQPEWNEWGVTNYYIKVRAGDNKYMHLKVFKSLIFWNEKLIREDLVLTGYQVDKNKDDELTGF
notes: His-tagged

molecular target: T1, human PD-L1-Fc (R&D Systems) (human, UniProt Q9NZQ7 19-239); assay: soluble Affimer ELISA
T1 construct: Bought from R&D Systems; Biotinylated in-house for the phage selection; also called huPD-L1-Fc; human PD-L1-Fc antigen; not shown: Fc part of the bought fusion
T1 sequence (Q9NZQ7 19-239 limits assumed): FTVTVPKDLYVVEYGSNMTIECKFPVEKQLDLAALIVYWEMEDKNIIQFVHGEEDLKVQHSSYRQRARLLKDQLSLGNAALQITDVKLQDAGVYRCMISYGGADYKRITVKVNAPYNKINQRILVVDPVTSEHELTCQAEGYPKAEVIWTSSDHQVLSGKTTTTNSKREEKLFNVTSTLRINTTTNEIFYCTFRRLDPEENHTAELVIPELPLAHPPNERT

Binding result, binds:
B1
B2
B3
B4
B5
B6
B7
B8
B9
B10
B11
B12
B13
B14
B15
B16
B17
B18
B19
B20
B21
B22
B23
B24
B25
B26
B27
B28
B29
B30
B31
B32
B33
B34
